Reference: PMC13269782

Target: T1, Cx47, human (human) (UniProt Q5T442)
T1 sequence: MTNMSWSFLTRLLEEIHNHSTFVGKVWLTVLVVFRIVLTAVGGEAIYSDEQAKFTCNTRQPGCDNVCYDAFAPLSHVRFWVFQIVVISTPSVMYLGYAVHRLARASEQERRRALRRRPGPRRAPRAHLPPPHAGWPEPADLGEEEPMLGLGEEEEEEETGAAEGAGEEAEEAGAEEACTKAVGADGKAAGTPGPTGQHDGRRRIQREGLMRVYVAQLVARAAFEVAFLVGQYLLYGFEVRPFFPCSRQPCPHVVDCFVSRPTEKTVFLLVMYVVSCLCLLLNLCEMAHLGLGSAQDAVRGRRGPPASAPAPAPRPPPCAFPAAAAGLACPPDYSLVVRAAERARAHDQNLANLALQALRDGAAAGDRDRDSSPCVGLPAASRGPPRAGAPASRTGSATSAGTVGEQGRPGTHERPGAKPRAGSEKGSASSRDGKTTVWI

B1: Cx47, human (natural protein)
chain: T1 sequence
median junctional conductance (Gj), dual whole-cell patch clamp of DKO HEK293 cell pairs, homotypic; IQR 0.08–7.68; 20 pairs: 1.3 nS
